One may read the Kd as a measure of binding affinity in units of concentration. Lower therefore signals higher affinity.

Experimental findings from PMC2908316 (2009) are described below.

B1: RGS7 (protein)
chain: MAQGNNYGQTSNGVADESPNMLVYRKMEDVIARMQDEKNGIPIRTVKSFLSKIPSVFSGSDIVQWLIKNLTIEDPVEALHLGTLMAAHGYFFPISDHVLTLKDDGTFYRFQTPYFWPSNCWEPENTDYAVYLCKRTMQNKARLELADYEAESLARLQRAFARKWEFIFMQAEAQAKVDKKRDKIERKILDSQERAFWDVHRPVPGCVNTTEVDIKKSSRMRNPHKTRKSVYGLQNDIRSHSPTHTPTPETKPPTEDELQQQIKYWQIQLDRHRLKMSKVADSLLSYTEQYLEYDPFLLPPDPSNPWLSDDTTFWELEASKEPSQQRVKRWGFGMDEALKDPVGREQFLKFLESEFSSENLRFWLAVEDLKKRPIKEVPSRVQEIWQEFLAPGAPSAINLDSKSYDKTTQNVKEPGRYTFEDAQEHIYKLMKSDSYPRFIRSSAYQELLQAKKKSGNSMDRRTSFEKFAQNVGRNIPIFPCHKNCTPTLRASTNLL
B2: RGS4 (protein)
chain: MCKGLAGLPASCLRSAKDMKHRLGFLLQKSDSCEHNSSHNKKDKVVICQRVSQEEVKKWAESLENLISHECGLAAFKAFLKSEYSEENIDFWISCEEYKKIKSPSKLSPKAKKIYNEFISVQATKEVNLDSCTREETSRNMLEPTITCFDEAQKKIFNLMEKDSYRRFLKSRFYLDLVNPSSCGAEKQKGAKSSADCASLVPQCA
B3: RGS16 (protein)
chain: MCRTLAAFPTTCLERAKEFKTRLGIFLHKSELGCDTGSTGKFEWGSKHSKENRNFSEDVLGWRESFDLLLSSKNGVAAFHAFLKTEFSEENLEFWLACEEFKKIRSATKLASRAHQIFEEFICSEAPKEVNIDHETHELTRMNLQTATATCFDAAQGKTRTLMEKDSYPRFLKSPAYRDLAAQASAASATLSSCSLDEPSHT
B4: RGS8 (protein)
chain: MAALLMPRRNKGMRTRLGCLSHKSDSCSDFTAILPDKPNRALKRLSTEEATRWADSFDVLLSHKYGVAAFRAFLKTEFSEENLEFWLACEEFKKTRSTAKLVSKAHRIFEEFVDVQAPREVNIDFQTREATRKNLQEPSLTCFDQAQGKVHSLMEKDSYPRFLRSKMYLDLLSQSQRRLS

In this experiment the target is Gαo (Homo sapiens, UniProt P09471). Description: flow cytometry protein interaction assay. (In general: Flow cytometry measures light scatter and fluorescence of single cells or particles in a stream.)
Chain of Gαo (P09471 2-354): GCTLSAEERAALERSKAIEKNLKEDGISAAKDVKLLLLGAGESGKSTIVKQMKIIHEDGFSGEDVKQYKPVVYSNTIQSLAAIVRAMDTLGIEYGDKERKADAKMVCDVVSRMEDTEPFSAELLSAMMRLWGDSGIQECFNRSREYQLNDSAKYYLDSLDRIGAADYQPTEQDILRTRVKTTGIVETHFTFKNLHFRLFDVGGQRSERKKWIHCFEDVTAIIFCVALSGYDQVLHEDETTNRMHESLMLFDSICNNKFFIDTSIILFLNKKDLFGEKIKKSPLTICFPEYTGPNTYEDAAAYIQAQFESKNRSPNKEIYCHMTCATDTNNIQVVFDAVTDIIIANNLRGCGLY
In turn, B1 displayed a Kd of less than 100 nM. The result for B2 reads less than 100 nM; that for B3, less than 100 nM; that for B4, less than 100 nM.
